PMC10397247

Legend:
4H2198-AA = molecular target: T1, 4H2198-AA; test: two-hybrid library CCmax; details: mean of both orientations;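 note: natural log of median RNA to DNA barcode read ratio; higher means stronger binding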
T1 chain: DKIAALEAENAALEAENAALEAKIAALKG

4H2553-AA = molecular target: T2, 4H2553-AA; test: two-hybrid library CCmax; details: mean of both orientations;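 note: natural log of median RNA to DNA barcode read ratio; higher means stronger binding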
T2 chain: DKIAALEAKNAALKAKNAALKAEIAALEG

4H384-AA = molecular target: T3, 4H384-AA; test: two-hybrid library CCmax; details: mean of both orientations;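 note: natural log of median RNA to DNA barcode read ratio; higher means stronger binding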
T3 chain: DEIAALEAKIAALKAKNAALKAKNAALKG

4H3718-AA = molecular target: T4, 4H3718-AA; test: two-hybrid library CCmax; details: mean of both orientations;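 note: natural log of median RNA to DNA barcode read ratio; higher means stronger binding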
T4 chain: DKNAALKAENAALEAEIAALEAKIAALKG

4H1874-AA = molecular target: T5, 4H1874-AA; test: two-hybrid library CCmax; details: mean of both orientations;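 note: natural log of median RNA to DNA barcode read ratio; higher means stronger binding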
T5 chain: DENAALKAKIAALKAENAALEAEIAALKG

4H1388-AA = molecular target: T6, 4H1388-AA; test: two-hybrid library CCmax; details: mean of both orientations;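 note: natural log of median RNA to DNA barcode read ratio; higher means stronger binding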
T6 chain: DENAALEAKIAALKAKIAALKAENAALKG

4H3056-AA = molecular target: T7, 4H3056-AA; test: two-hybrid library CCmax; details: mean of both orientations
T7 chain: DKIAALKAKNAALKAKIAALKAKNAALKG

4H697-AA = molecular target: T8, 4H697-AA; test: two-hybrid library CCmax; details: mean of both orientations
T8 chain: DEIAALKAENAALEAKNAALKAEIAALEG

4H982-AA = molecular target: T9, 4H982-AA; test: two-hybrid library CCmax; details: mean of both orientations
T9 chain: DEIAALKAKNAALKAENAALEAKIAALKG

4H1629-AA = molecular target: T10, 4H1629-AA; test: two-hybrid library CCmax; details: mean of both orientations
T10 chain: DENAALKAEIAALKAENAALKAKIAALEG

4H2620-AA = molecular target: T11, 4H2620-AA; test: two-hybrid library CCmax; details: mean of both orientations
T11 chain: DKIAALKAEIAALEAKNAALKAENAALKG

4H1845-AA = molecular target: T12, 4H1845-AA; test: two-hybrid library CCmax; details: mean of both orientations
T12 chain: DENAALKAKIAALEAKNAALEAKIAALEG

4H1513-AA = molecular target: T13, 4H1513-AA; test: two-hybrid library CCmax; details: mean of both orientations
T13 chain: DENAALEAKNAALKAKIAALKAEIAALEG

4H3865-AA = molecular target: T14, 4H3865-AA; test: two-hybrid library CCmax; details: mean of both orientations
T14 chain: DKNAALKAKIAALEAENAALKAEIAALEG

4H2648-AA = molecular target: T15, 4H2648-AA; test: two-hybrid library CCmax; details: mean of both orientations
T15 chain: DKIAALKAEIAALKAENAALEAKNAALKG

4H3588-AA = molecular target: T16, 4H3588-AA; test: two-hybrid library CCmax; details: mean of both orientations
T16 chain: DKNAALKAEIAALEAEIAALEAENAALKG

4H3697-AA = molecular target: T17, 4H3697-AA; test: two-hybrid library CCmax; details: mean of both orientations
T17 chain: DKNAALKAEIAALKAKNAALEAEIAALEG

4H1401-AA = molecular target: T18, 4H1401-AA; test: two-hybrid library CCmax; details: mean of both orientations
T18 chain: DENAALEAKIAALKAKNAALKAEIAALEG

4H3378-AA = molecular target: T19, 4H3378-AA; test: two-hybrid library CCmax
T19 chain: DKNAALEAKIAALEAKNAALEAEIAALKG

4H1351-AA = molecular target: T20, 4H1351-AA; test: two-hybrid library CCmax
T20 chain: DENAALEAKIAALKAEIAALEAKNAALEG

4H340-AA = molecular target: T21, 4H340-AA; test: two-hybrid library CCmax; details: mean of both orientations
T21 chain: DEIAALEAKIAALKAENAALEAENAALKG

4H1594-AA = molecular target: T22, 4H1594-AA; test: two-hybrid library CCmax; details: mean of both orientations
T22 chain: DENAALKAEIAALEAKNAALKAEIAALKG

4H3606-AA = molecular target: T23, 4H3606-AA; test: two-hybrid library CCmax; details: mean of both orientations
T23 chain: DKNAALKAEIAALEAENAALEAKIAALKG

4H2611-AA = molecular target: T24, 4H2611-AA; test: two-hybrid library CCmax; details: mean of both orientations
T24 chain: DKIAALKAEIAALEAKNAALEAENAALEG

4H3413-AA = molecular target: T25, 4H3413-AA; test: two-hybrid library CCmax; details: mean of both orientations
T25 chain: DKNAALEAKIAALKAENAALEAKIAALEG

4H3133-AA = molecular target: T26, 4H3133-AA; test: two-hybrid library CCmax; details: mean of both orientations
T26 chain: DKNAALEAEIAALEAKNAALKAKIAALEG

4H32-AA = molecular target: T27, 4H32-AA; test: two-hybrid library CCmax; details: mean of both orientations
T27 chain: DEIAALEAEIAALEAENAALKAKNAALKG

4H2907-AA = molecular target: T28, 4H2907-AA; test: two-hybrid library CCmax; details: mean of both orientations
T28 chain: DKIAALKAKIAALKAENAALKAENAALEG

4H3631-AA = molecular target: T29, 4H3631-AA; test: two-hybrid library CCmax
T29 chain: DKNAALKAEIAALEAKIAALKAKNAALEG

4H3162-AA = molecular target: T30, 4H3162-AA; test: two-hybrid library CCmax; details: mean of both orientations
T30 chain: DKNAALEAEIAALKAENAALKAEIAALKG

4H477-bA = molecular target: T31, 4H477-bA; test: two-hybrid library CCNG1
T31 chain: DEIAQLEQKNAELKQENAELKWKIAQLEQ

4H3855-bN = molecular target: T32, 4H3855-bN; test: two-hybrid library CCNG1
T32 chain: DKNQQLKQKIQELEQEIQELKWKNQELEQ

4H3277-bA = molecular target: T33, 4H3277-bA; test: two-hybrid library CCNG1
T33 chain: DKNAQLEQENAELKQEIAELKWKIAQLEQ

4H40-bA = molecular target: T34, 4H40-bA; test: two-hybrid library CCNG1
T34 chain: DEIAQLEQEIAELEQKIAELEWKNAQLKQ

4H2915-bA = molecular target: T35, 4H2915-bA; test: two-hybrid library CCNG1
T35 chain: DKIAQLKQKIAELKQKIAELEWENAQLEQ

4H348-bA = molecular target: T36, 4H348-bA; test: two-hybrid library CCNG1
T36 chain: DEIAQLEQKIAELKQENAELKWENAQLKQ

4H741-bA = molecular target: T37, 4H741-bA; test: two-hybrid library CCNG1
T37 chain: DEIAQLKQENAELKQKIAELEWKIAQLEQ

4H319-bA = molecular target: T38, 4H319-bA; test: two-hybrid library CCNG1
T38 chain: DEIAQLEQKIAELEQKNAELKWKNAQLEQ

4H492-bA = molecular target: T39, 4H492-bA; test: two-hybrid library CCNG1
T39 chain: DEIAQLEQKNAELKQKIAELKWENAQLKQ

O11-bA = molecular target: T40, O11-bA; test: two-hybrid library CCNG1
T40 chain: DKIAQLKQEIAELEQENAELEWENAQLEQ

4H3057-bA = molecular target: T41, 4H3057-bA; test: two-hybrid library CCNG1
T41 chain: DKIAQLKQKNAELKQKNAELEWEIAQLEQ

4H949-bN = molecular target: T42, 4H949-bN; test: two-hybrid library CCNG1
T42 chain: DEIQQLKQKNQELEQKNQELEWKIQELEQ

4H2585-bN = molecular target: T43, 4H2585-bN; test: two-hybrid library CCNG1
T43 chain: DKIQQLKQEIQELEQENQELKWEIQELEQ

4H932-bN = molecular target: T44, 4H932-bN; test: two-hybrid library CCNG1
T44 chain: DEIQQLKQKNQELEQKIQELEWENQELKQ

4H56-bN = molecular target: T45, 4H56-bN; test: two-hybrid library CCNG1
T45 chain: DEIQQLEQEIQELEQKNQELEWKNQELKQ

4H730-bN = molecular target: T46, 4H730-bN; test: two-hybrid library CCNG1
T46 chain: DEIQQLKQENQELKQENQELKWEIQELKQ

4H349-bN = molecular target: T47, 4H349-bN; test: two-hybrid library CCNG1
T47 chain: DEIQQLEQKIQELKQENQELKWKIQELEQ

4H3297-bN = molecular target: T48, 4H3297-bN; test: two-hybrid library CCNG1
T48 chain: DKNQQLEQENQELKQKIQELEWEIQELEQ

4H2518-bN = molecular target: T49, 4H2518-bN; test: two-hybrid library CCNG1
T49 chain: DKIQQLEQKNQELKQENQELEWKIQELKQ

4H796-bN = molecular target: T50, 4H796-bN; test: two-hybrid library CCNG1
T50 chain: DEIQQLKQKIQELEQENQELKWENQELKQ

4H3364-bN = molecular target: T51, 4H3364-bN; test: two-hybrid library CCNG1
T51 chain: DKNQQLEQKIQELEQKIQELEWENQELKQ

4H3381-bN = molecular target: T52, 4H3381-bN; test: two-hybrid library CCNG1
T52 chain: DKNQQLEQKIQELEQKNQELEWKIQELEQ

4H264-bN = molecular target: T53, 4H264-bN; test: two-hybrid library CCNG1
T53 chain: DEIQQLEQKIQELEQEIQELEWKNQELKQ

4H2859-bN = molecular target: T54, 4H2859-bN; test: two-hybrid library CCNG1
T54 chain: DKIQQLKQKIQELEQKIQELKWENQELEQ

4H235-bN = molecular target: T55, 4H235-bN; test: two-hybrid library CCNG1
T55 chain: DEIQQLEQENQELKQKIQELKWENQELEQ

4H3041-bN = molecular target: T56, 4H3041-bN; test: two-hybrid library CCNG1
T56 chain: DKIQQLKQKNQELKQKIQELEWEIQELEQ

4H2444-bN = molecular target: T57, 4H2444-bN; test: two-hybrid library CCNG1
T57 chain: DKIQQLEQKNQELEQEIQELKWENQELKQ

4H2253-bN = molecular target: T58, 4H2253-bN; test: two-hybrid library CCNG1
T58 chain: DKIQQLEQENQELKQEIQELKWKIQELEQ

4H2760-bN = molecular target: T59, 4H2760-bN; test: two-hybrid library CCNG1
T59 chain: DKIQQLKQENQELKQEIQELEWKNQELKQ

4H2931-bN = molecular target: T60, 4H2931-bN; test: two-hybrid library CCNG1
T60 chain: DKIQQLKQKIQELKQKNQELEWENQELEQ

DENAALEAKIAALKAEIAALEAKNAALEG [4H1351-AA]
interaction score (4H2198-AA): -1.4 | interaction score (4H2553-AA): -1.95 | interaction score (4H384-AA): 0.76 | interaction score (4H3718-AA): 0.664 | interaction score (4H1874-AA): -1.67 | interaction score (4H1388-AA): -0.254 | interaction score (4H3056-AA): -1.54 | interaction score (4H697-AA): -1.65 | interaction score (4H982-AA): -0.516 | interaction score (4H1629-AA): -1.62 | interaction score (4H2620-AA): -0.325 | interaction score (4H1845-AA): -1.17 | interaction score (4H1513-AA): -0.583 | interaction score (4H3865-AA): -1.73 | interaction score (4H2648-AA): -0.804 | interaction score (4H3588-AA): 0.934 | interaction score (4H3697-AA): -1.37 | interaction score (4H1401-AA): -1.25 | interaction score (4H3378-AA): -1.5 | interaction score (4H1351-AA): 0.323 | interaction score (4H340-AA): -1 | interaction score (4H1594-AA): -1.24 | interaction score (4H3606-AA): -1.64 | interaction score (4H2611-AA): -0.748 | interaction score (4H3413-AA): -1.34 | interaction score (4H3133-AA): -0.555 | interaction score (4H32-AA): -0.591 | interaction score (4H2907-AA): -1.52 | interaction score (4H3631-AA): 2.1 | interaction score (4H3162-AA): -1.42

DKIAQLKQKIAELKQKIAELEWENAQLEQ [4H2915-bA]
interaction score (4H477-bA): -1.05 | interaction score (4H3855-bN): 0.188 | interaction score (4H3277-bA): -1.17 | interaction score (4H40-bA): 1.35 | interaction score (4H2915-bA): 0.656 | interaction score (4H348-bA): -1.42 | interaction score (4H741-bA): -0.66 | interaction score (4H319-bA): 1.12 | interaction score (4H492-bA): -1.03 | interaction score (O11-bA): 0.236 | interaction score (4H3057-bA): -0.856

DKIQQLEQENQELKQEIQELKWKIQELEQ [4H2253-bN]
interaction score (4H949-bN): -0.506 | interaction score (4H2585-bN): -1.66 | interaction score (4H932-bN): -0.7 | interaction score (4H56-bN): -0.248 | interaction score (4H730-bN): -0.523 | interaction score (4H349-bN): -0.821 | interaction score (4H3297-bN): 0.232 | interaction score (4H2518-bN): 0.436 | interaction score (4H796-bN): -1.07 | interaction score (4H3364-bN): -1.32 | interaction score (4H3381-bN): -0.558 | interaction score (4H264-bN): 0.574 | interaction score (4H2859-bN): -0.113 | interaction score (4H235-bN): -0.204 | interaction score (4H3041-bN): -0.989 | interaction score (4H2444-bN): 0.131 | interaction score (4H2253-bN): 1.16 | interaction score (4H2760-bN): 0.286 | interaction score (4H2931-bN): -0.437
